Earlier results on one substance are cited in paper PMC12571840.

The term Ki denotes a measure of affinity in units of concentration, obtained from inhibition or displacement.

One series concerns the target CRHR1 (Homo sapiens) (UniProt P34998).
The target of another series is CRHR2 (Homo sapiens) (UniProt Q13324).
UniProt Q13324, sequence (Q13324 20-411): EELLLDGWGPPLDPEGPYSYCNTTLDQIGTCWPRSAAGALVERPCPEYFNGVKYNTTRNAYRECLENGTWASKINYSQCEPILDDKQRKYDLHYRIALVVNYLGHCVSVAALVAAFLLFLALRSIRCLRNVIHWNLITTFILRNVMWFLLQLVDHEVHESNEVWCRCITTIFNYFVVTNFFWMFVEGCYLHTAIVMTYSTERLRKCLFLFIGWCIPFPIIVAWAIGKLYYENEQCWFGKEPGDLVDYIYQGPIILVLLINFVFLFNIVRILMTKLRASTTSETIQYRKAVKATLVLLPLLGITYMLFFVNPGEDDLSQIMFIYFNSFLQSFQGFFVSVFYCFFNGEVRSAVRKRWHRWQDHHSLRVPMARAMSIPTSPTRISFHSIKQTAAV

UniProt P34998, sequence (P34998 24-415): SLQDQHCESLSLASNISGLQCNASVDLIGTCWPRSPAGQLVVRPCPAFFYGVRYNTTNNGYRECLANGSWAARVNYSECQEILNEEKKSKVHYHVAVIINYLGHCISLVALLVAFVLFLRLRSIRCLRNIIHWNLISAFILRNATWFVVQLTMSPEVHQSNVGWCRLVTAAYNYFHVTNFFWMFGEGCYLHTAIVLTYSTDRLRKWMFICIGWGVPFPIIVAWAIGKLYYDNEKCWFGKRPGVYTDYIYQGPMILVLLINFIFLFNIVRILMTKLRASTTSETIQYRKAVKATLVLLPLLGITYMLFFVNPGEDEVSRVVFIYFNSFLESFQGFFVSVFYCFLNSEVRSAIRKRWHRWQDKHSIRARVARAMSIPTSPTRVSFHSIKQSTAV

For CRH (from UniProt P06850), the Ki in the series with CRHR1 (Homo sapiens) is 0.95 nM; with CRHR2 (Homo sapiens), 13 nM.
